Tests used:
Type in all cases: in vivo, human (participants with type 1 diabetes mellitus)
[1] = Insulin lispro pharmacokinetics after pump bolus during euglycemic clamp over 7 days of infusion set wear; conditions: for decline of median total insulin exposure (AUC0–300) from days 0 to 7: n.s.; for AUC0–300 (area under the insulin concentration curve, 0 to 300 min) / Cmax (maximum insulin concentration) / MRT (mean residence time) / t50% (early) (time to reach 50% of Cmax before peak) / t50% (late) (time to reach 50% of Cmax after peak) / tmax (time to maximum insulin concentration): 0.15 U/kg SC bolus by pump, plasma ELISA, median (25th–75th)
From the text: (§1) We performed a prospectively enrolled randomized sequence two-way crossover study of the investigational CBX (Capillary Biomedical, Inc., Irvine, CA) and a commercial angled Teflon (MiniMed™ Silhouette™; Medtronic Diabetes Care, Northridge, CA; indicated for 3-day use) IIS for two weeklong home use periods with four in-patient euglycemic clamp sessions during each of the 7-day periods. Between the two periods, there was a wash out of 14 days (Supplementary Fig. S1).
(§2) Euglycemic clamp experiments were performed at AMCR Institute (in Escondido, CA.) on days 0, 3, 5, and 7 in each treatment period (eight clamps per participant). Participants were admitted to AMCR the evening before the clamp study and glucose was stabilized overnight with intravenous (IV) insulin or glucose as needed. Personal pumps were set to 0.1 U/h overnight and throughout the clamp experiment. Once glucose was stable (95 ± 15 mg/dL) in the morning, IV insulin was stopped 20 min before administering a bolus of 0.15 U/kg of insulin lispro (Eli Lilly, Indianapolis, IN) by pump. Glucose was clamped at 95 ± 15 mg/dL for 300 min or terminated early if runaway hyperglycemia occurred.
Per participant and clamp, 30 plasma samples were collected in regular intervals and stored at −70°C. Samples were analyzed elsewhere (Northern Lights Mercodia Lispro ELISA, Mercodia AB, Uppsala, Sweden; lowest limit of quantification (LLOQ) = 1.0 mU/L, 94% accuracy[7]). Owing to the small sample size and the intrinsically greater variability in pharmacodynamic measures, the PK results are the only results detailed in this report.
(§3) PK parameters (area under the insulin concentration curve [AUC] over the first 60 or 300 min, respectively; time to maximum insulin concentration [tmax]; maximum insulin concentration [Cmax]; time to half-maximum insulin concentration, early and late [t50%], and mean residence time [MRT]) were tested for treatment effects. […] Estimated means were then back transformed and the ratio between treatments/days (equality means a ratio of 1) tested for significance using mixed model for repeated measures (two-sided, α = 0.05). For simplicity reasons, all data are presented as median (25th–75th percentiles) or mean ± standard deviation.

[2] = Euglycemic clamp pharmacodynamics (glucose infusion rate) after insulin lispro pump bolus; parameters: t50% (GIR, early) (time to reach 50% GIRmax before peak) / t50% (GIR, late) (time to reach 50% GIRmax after peak): unit: min; conditions: 0.15 U/kg SC bolus by pump, euglycemic clamp 300 min, median (25th–75th)
From the text: as §1, §2, §3

[3] = Adverse events during the crossover clamp study; conditions: both IIS types
From the text: as §1
WCG IRB approved the protocol and all associated documents used by participants before initiation of the study (Study No. 1283383) and during the study were registered in clinicaltrials.gov (NCT04398030). Participants aged 18–70 years, diagnosed with type 1 diabetes mellitus, and using rapid-acting insulin analog delivered through a Medtronic MiniMed insulin pump (model 530 or higher; Medtronic Diabetes Care) for at least 6 months were enrolled.

[4] = day 0 of IIS wear, CBX IIS, n = 6
[5] = day 0 of IIS wear, Control IIS, n = 6
[6] = day 3 of IIS wear, CBX IIS, n = 6
[7] = day 3 of IIS wear, Control IIS, n = 6
[8] = day 5 of IIS wear, CBX IIS, n = 6
[9] = day 5 of IIS wear, Control IIS, n = 6
[10] = day 7 of IIS wear, CBX IIS, n = 5
[11] = day 7 of IIS wear, Control IIS, n = 5

insulin lispro
acceleration of median tmax by day 7 vs day 0 ([1]; CBX group): 61%
decrease of median MRT from day 0 to day 7 ([1]; CBX group): 42%
increase of median early exposure (AUC0–60) by day 7 vs day 0 ([1]; CBX group): 59%
decline of median total insulin exposure (AUC0–300) from days 0 to 7 ([1]; CBX group): 22%
acceleration of median tmax by day 7 vs day 0 ([1]; Control group): 63%
increase of median early exposure (AUC0–60) by day 7 vs day 0 ([1]; Control group): 34%
decline of median total insulin exposure (AUC0–300) from days 0 to 7 ([1]; Control group): 26%
AUC0–300 (area under the insulin concentration curve, 0 to 300 min) [1, 4]: 8562 (6576–11416) mU/(min·L)
Cmax (maximum insulin concentration) [1, 4]: 60.4 (33.5–73.6) mU/L
MRT (mean residence time) [1, 4]: 129.5 (117.1–137.5) min
t50% (early) (time to reach 50% of Cmax before peak) [1, 4]: 23.3 (11.8–34.1) min
t50% (late) (time to reach 50% of Cmax after peak) [1, 4]: 163.1 (157.3–181.8) min
tmax (time to maximum insulin concentration) [1, 4]: 65.0 (50.0–90.0) min
AUC0–300 (area under the insulin concentration curve, 0 to 300 min) [1, 5]: 8894 (7599–9870) mU/(min·L)
Cmax (maximum insulin concentration) [1, 5]: 61.9 (45.0–82.5) mU/L
MRT (mean residence time) [1, 5]: 118.0 (97.9–131.0) min
t50% (early) (time to reach 50% of Cmax before peak) [1, 5]: 27.4 (19.8–32.7) min
t50% (late) (time to reach 50% of Cmax after peak) [1, 5]: 156.5 (121.2–174.5) min
tmax (time to maximum insulin concentration) [1, 5]: 67.5 (45.0–80.0) min
AUC0–300 (area under the insulin concentration curve, 0 to 300 min) [1, 6]: 8281 (7176–10737) mU/(min·L)
Cmax (maximum insulin concentration) [1, 6]: 69.0 (56.2–71.5) mU/L
MRT (mean residence time) [1, 6]: 114.4 (105.9–116.9) min
t50% (early) (time to reach 50% of Cmax before peak) [1, 6]: 18.0 (11.2–19.2) min
t50% (late) (time to reach 50% of Cmax after peak) [1, 6]: 135.4 (120.4–150.0) min
tmax (time to maximum insulin concentration) [1, 6]: 42.5 (35.0–45.0) min
AUC0–300 (area under the insulin concentration curve, 0 to 300 min) [1, 7]: 7434 (6600–8282) mU/(min·L)
Cmax (maximum insulin concentration) [1, 7]: 60.2 (56.2–69.7) mU/L
MRT (mean residence time) [1, 7]: 112.4 (104.1–124.3) min
t50% (early) (time to reach 50% of Cmax before peak) [1, 7]: 15.7 (12.2–25.6) min
t50% (late) (time to reach 50% of Cmax after peak) [1, 7]: 119.3 (98.8–152.7) min
tmax (time to maximum insulin concentration) [1, 7]: 32.5 (25.0–50.0) min
AUC0–300 (area under the insulin concentration curve, 0 to 300 min) [1, 8]: 8175 (7194–8538) mU/(min·L)
Cmax (maximum insulin concentration) [1, 8]: 93.6 (73.9–104.4) mU/L
MRT (mean residence time) [1, 8]: 89.0 (76.9–91.7) min
t50% (early) (time to reach 50% of Cmax before peak) [1, 8]: 12.4 (10.3–14.2) min
t50% (late) (time to reach 50% of Cmax after peak) [1, 8]: 74.8 (66.7–76.2) min
tmax (time to maximum insulin concentration) [1, 8]: 25.0 (25.0–30.0) min
AUC0–300 (area under the insulin concentration curve, 0 to 300 min) [1, 9]: 7253 (5949–7625) mU/(min·L)
Cmax (maximum insulin concentration) [1, 9]: 72.6 (54.1–91.0) mU/L
MRT (mean residence time) [1, 9]: 88.7 (85.7–110.5) min
t50% (early) (time to reach 50% of Cmax before peak) [1, 9]: 11.5 (8.2–13.1) min
t50% (late) (time to reach 50% of Cmax after peak) [1, 9]: 69.3 (68.2–88.3) min
tmax (time to maximum insulin concentration) [1, 9]: 25.0 (25.0–30.0) min
AUC0–300 (area under the insulin concentration curve, 0 to 300 min) [1, 10]: 6684 (6402–8342) mU/(min·L)
Cmax (maximum insulin concentration) [1, 10]: 92.3 (78.4–101.5) mU/L
MRT (mean residence time) [1, 10]: 75.7 (66.7–87.0) min
t50% (early) (time to reach 50% of Cmax before peak) [1, 10]: 11.6 (9.5–14.2) min
t50% (late) (time to reach 50% of Cmax after peak) [1, 10]: 62.5 (60.7–68.8) min
tmax (time to maximum insulin concentration) [1, 10]: 25.0 (25.0–25.0) min
AUC0–300 (area under the insulin concentration curve, 0 to 300 min) [1, 11]: 6603 (5822–6773) mU/(min·L)
Cmax (maximum insulin concentration) [1, 11]: 80.9 (79.0–84.0) mU/L
MRT (mean residence time) [1, 11]: 75.4 (62.2–98.6) min
t50% (early) (time to reach 50% of Cmax before peak) [1, 11]: 12.3 (11.5–16.4) min
t50% (late) (time to reach 50% of Cmax after peak) [1, 11]: 63.5 (57.5–77.9) min
tmax (time to maximum insulin concentration) [1, 11]: 25.0 (20.0–30.0) min
decline of AUC0–300 from days 0 to 7 ([1]; pooled data from both IIS groups, 0.15 U/kg bolus): ~24%
AUC0–300(GIR) (area under the GIR curve from 0 to 300 min) [2, 4]: 1205 (642.1–1219) mg/kg
GIRmax (maximum glucose infusion rate) [2, 4]: 8.4 (4.5–9.1) mg/(kg·min)
Onset of action [2, 4]: 28.9 (21.4–39.0) min
t50% (GIR, early) (time to reach 50% GIRmax before peak) [2, 4]: 48.7 (25.7–63.5)
t50% (GIR, late) (time to reach 50% GIRmax after peak) [2, 4]: 187.4 (160.4–234.3)
tmax(GIR) (time to reach GIRmax) [2, 4]: 140.0 (80.0–170.0) min
AUC0–300(GIR) (area under the GIR curve from 0 to 300 min) [2, 5]: 1330 (790.6–1539) mg/kg
GIRmax (maximum glucose infusion rate) [2, 5]: 10.2 (7.7–11.7) mg/(kg·min)
Onset of action [2, 5]: 76.1 (56.6–106.4) min
t50% (GIR, early) (time to reach 50% GIRmax before peak) [2, 5]: 67.6 (43.0–93.5)
t50% (GIR, late) (time to reach 50% GIRmax after peak) [2, 5]: 182.6 (164.3–247.3)
tmax(GIR) (time to reach GIRmax) [2, 5]: 145.0 (90.0–190.0) min
AUC0–300(GIR) (area under the GIR curve from 0 to 300 min) [2, 6]: 719.6 (652.3–864.3) mg/kg
GIRmax (maximum glucose infusion rate) [2, 6]: 7.41 (5.7–9.5) mg/(kg·min)
Onset of action [2, 6]: 28.2 (12.1–34.0) min
t50% (GIR, early) (time to reach 50% GIRmax before peak) [2, 6]: 49.0 (37.7–95.0)
t50% (GIR, late) (time to reach 50% GIRmax after peak) [2, 6]: 157.6 (97.5–179.0)
tmax(GIR) (time to reach GIRmax) [2, 6]: 65.00 (60.0–120.0) min
AUC0–300(GIR) (area under the GIR curve from 0 to 300 min) [2, 7]: 743.1 (585.5–1268) mg/kg
GIRmax (maximum glucose infusion rate) [2, 7]: 5.2 (5.0–13.5) mg/(kg·min)
Onset of action [2, 7]: 35.4 (29.0–41.4) min
t50% (GIR, early) (time to reach 50% GIRmax before peak) [2, 7]: 51.3 (44.9–55.6)
t50% (GIR, late) (time to reach 50% GIRmax after peak) [2, 7]: 147.8 (88.3–177.7)
tmax(GIR) (time to reach GIRmax) [2, 7]: 82.0 (60.0–110.0) min
AUC0–300(GIR) (area under the GIR curve from 0 to 300 min) [2, 8]: 663.5 (609.8–1332) mg/kg
GIRmax (maximum glucose infusion rate) [2, 8]: 8.1 (6.5–10.9) mg/(kg·min)
Onset of action [2, 8]: 21.1 (18.4–23.8) min
t50% (GIR, early) (time to reach 50% GIRmax before peak) [2, 8]: 33.3 (28.7–37.0)
t50% (GIR, late) (time to reach 50% GIRmax after peak) [2, 8]: 92.6 (77.1–147.0)
tmax(GIR) (time to reach GIRmax) [2, 8]: 62.5 (50.0–70.0) min
AUC0–300(GIR) (area under the GIR curve from 0 to 300 min) [2, 9]: 695.2 (585.4–1395) mg/kg
GIRmax (maximum glucose infusion rate) [2, 9]: 9.1 (7.3–10.8) mg/(kg·min)
Onset of action [2, 9]: 20.0 (16.4–23.0) min
t50% (GIR, early) (time to reach 50% GIRmax before peak) [2, 9]: 38.8 (30.6–39.1)
t50% (GIR, late) (time to reach 50% GIRmax after peak) [2, 9]: 106.8 (95.4–140.2)
tmax(GIR) (time to reach GIRmax) [2, 9]: 59.0 (55.0–60.0) min
AUC0–300(GIR) (area under the GIR curve from 0 to 300 min) [2, 10]: 883.0 (380.6–908.4) mg/kg
GIRmax (maximum glucose infusion rate) [2, 10]: 10.1 (4.9–11.3) mg/(kg·min)
Onset of action [2, 10]: 18.8 (16.2–27.0) min
t50% (GIR, early) (time to reach 50% GIRmax before peak) [2, 10]: 32.2 (28.0–36.0)
t50% (GIR, late) (time to reach 50% GIRmax after peak) [2, 10]: 107.5 (105.9–117.8)
tmax(GIR) (time to reach GIRmax) [2, 10]: 55.0 (50.0–55.0) min
AUC0–300(GIR) (area under the GIR curve from 0 to 300 min) [2, 11]: 687.7 (386.7–1039) mg/kg
GIRmax (maximum glucose infusion rate) [2, 11]: 9.2 (6.9–11.5) mg/(kg·min)
Onset of action [2, 11]: 27.5 (14.6–32.0) min
t50% (GIR, early) (time to reach 50% GIRmax before peak) [2, 11]: 48.1 (23.2–48.1)
t50% (GIR, late) (time to reach 50% GIRmax after peak) [2, 11]: 96.7 (87.1–109.5)
tmax(GIR) (time to reach GIRmax) [2, 11]: 70.0 (60.0–70.0) min
severe or serious adverse events [3]: No severe or serious adverse events

From PMC9894594, “Progressive Acceleration of Insulin Exposure Over 7 Days of Infusion Set Wear” (Diabetes Technology & Therapeutics, 2023)
